# Laboratory results: the supplement of paper PMC9112550, “Optimization of the antimicrobial peptide Bac7 by deep mutational scanning” (BMC Biology, 2022)
# Test system: Escherichia coli TOP10
# Test: shrunken log2 fold change of peptide-encoding DNA abundance (4.5 h post-induction vs induction); higher = less antimicrobial activity (less host growth inhibition)
# Details: time post-induction: 4.5 h; library: site-saturation at positions 5, 18, 19, 20
# 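Further: peptides expressed intracellularly from a pBAD plasmid library in pooled LB shake-flask culture, induced with 0.3% L-arabinose, DNA abundance read by NGS, three biological replicates, DESeq2 with apeglm shrinkage.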
row,Sequence,shrunken log2 fold change
1,RRIRMRPPRLPRPRPRPFSPPRP,-0.189
2,RRIRERPPRLPRPRPRPHWCPRP,0.0281
3,RRIRKRPPRLPRPRPRPTCPPRP,0.0404
4,RRIRIRPPRLPRPRPRPPLEPRP,-0.272
5,RRIRFRPPRLPRPRPRPVDIPRP,-0.338
6,RRIRIRPPRLPRPRPRPMGKPRP,-0.0139
7,RRIRKRPPRLPRPRPRPMQPPRP,0.288
8,RRIRYRPPRLPRPRPRPSCSPRP,-0.972
9,RRIRLRPPRLPRPRPRPTQHPRP,0.218
10,RRIRVRPPRLPRPRPRPQNVPRP,-0.51
11,RRIRVRPPRLPRPRPRPCADPRP,-0.101
12,RRIRRRPPRLPRPRPRPWAAPRP,0.403
13,RRIRARPPRLPRPRPRPDSVPRP,0.118
14,RRIRIRPPRLPRPRPRPTCAPRP,-0.166
15,RRIRSRPPRLPRPRPRPQINPRP,-0.46
16,RRIRQRPPRLPRPRPRPGFQPRP,0.00598
17,RRIRFRPPRLPRPRPRPLFNPRP,-0.605
18,RRIRMRPPRLPRPRPRPMSFPRP,-0.0179
19,RRIRLRPPRLPRPRPRPWTSPRP,-0.384
20,RRIRPRPPRLPRPRPRPCVNPRP,-0.0713
21,RRIRARPPRLPRPRPRPWLMPRP,0.0299
22,RRIRMRPPRLPRPRPRPCLGPRP,0.0639

row,Sequence,shrunken log2 fold change
1,RRIRKRPPRLPRPRPRPQDVPRP,-0.0018
2,RRIRTRPPRLPRPRPRPCGVPRP,-0.175
3,RRIRPRPPRLPRPRPRPEMNPRP,-0.381
4,RRIRCRPPRLPRPRPRPGLLPRP,0.0187
5,RRIRRRPPRLPRPRPRPCQCPRP,0.0262
6,RRIRNRPPRLPRPRPRPWHIPRP,-0.325
7,RRIRQRPPRLPRPRPRPSTNPRP,-0.364
8,RRIRYRPPRLPRPRPRPYGWPRP,-0.187
9,RRIRARPPRLPRPRPRPDQRPRP,0.267
10,RRIRNRPPRLPRPRPRPLSVPRP,-0.21
11,RRIRKRPPRLPRPRPRPQEFPRP,-0.0241
12,RRIRRRPPRLPRPRPRPRPGPRP,0.557
13,RRIRCRPPRLPRPRPRPTCTPRP,-0.2
14,RRIRDRPPRLPRPRPRPKECPRP,0.184
15,RRIRQRPPRLPRPRPRPHIIPRP,-0.362
16,RRIRCRPPRLPRPRPRPKGQPRP,0.0213
17,RRIRWRPPRLPRPRPRPFAIPRP,0.086
18,RRIRVRPPRLPRPRPRPWTQPRP,-0.219
19,RRIRTRPPRLPRPRPRPKDYPRP,-0.115
20,RRIRGRPPRLPRPRPRPCDEPRP,0.566
21,RRIRSRPPRLPRPRPRPKFLPRP,-0.0307
22,RRIRCRPPRLPRPRPRPHNFPRP,-1.01

row,Sequence,shrunken log2 fold change
1,RRIRMRPPRLPRPRPRPGYTPRP,-0.177
2,RRIRWRPPRLPRPRPRPHNEPRP,-0.476
3,RRIRHRPPRLPRPRPRPKFNPRP,-0.437
4,RRIRARPPRLPRPRPRPKDMPRP,0.263
5,RRIRARPPRLPRPRPRPCRNPRP,-0.38
6,RRIRGRPPRLPRPRPRPKPEPRP,0.819
7,RRIRCRPPRLPRPRPRPANVPRP,-0.0934
8,RRIRSRPPRLPRPRPRPMRSPRP,0.0162
9,RRIRLRPPRLPRPRPRPGNEPRP,-0.0032
10,RRIRLRPPRLPRPRPRPYINPRP,-0.584
11,RRIRRRPPRLPRPRPRPMFLPRP,0.0789
12,RRIRWRPPRLPRPRPRPKNTPRP,-0.127
13,RRIRQRPPRLPRPRPRPRMMPRP,-0.161
14,RRIRRRPPRLPRPRPRPYDEPRP,-0.302
15,RRIRQRPPRLPRPRPRPFVAPRP,0.0106
16,RRIRNRPPRLPRPRPRPYQWPRP,-0.098
17,RRIRYRPPRLPRPRPRPNQWPRP,0.00192
18,RRIRYRPPRLPRPRPRPKIEPRP,-0.00459
19,RRIRKRPPRLPRPRPRPSARPRP,0.468
20,RRIRLRPPRLPRPRPRPPTYPRP,-0.304
21,RRIRCRPPRLPRPRPRPCFEPRP,-0.00928
22,RRIRMRPPRLPRPRPRPAKLPRP,0.441

row,Sequence,shrunken log2 fold change
1,RRIRNRPPRLPRPRPRPIQIPRP,-0.363
2,RRIRMRPPRLPRPRPRPSVLPRP,0.0464
3,RRIRNRPPRLPRPRPRPMKMPRP,0.064
4,RRIRYRPPRLPRPRPRPEPHPRP,-0.0423
5,RRIRCRPPRLPRPRPRPALIPRP,-0.0928
6,RRIRCRPPRLPRPRPRPVSTPRP,-0.104
7,RRIRIRPPRLPRPRPRPWCAPRP,-0.377
8,RRIRWRPPRLPRPRPRPREKPRP,1.16
9,RRIRDRPPRLPRPRPRPWNYPRP,-0.0121
10,RRIRARPPRLPRPRPRPIAEPRP,0.42
11,RRIRTRPPRLPRPRPRPYDAPRP,0.0888
12,RRIRERPPRLPRPRPRPVIRPRP,-0.305
13,RRIRKRPPRLPRPRPRPCHSPRP,-0.0177
14,RRIRTRPPRLPRPRPRPGWKPRP,0.262
15,RRIRHRPPRLPRPRPRPHEMPRP,-0.257
16,RRIRRRPPRLPRPRPRPQQCPRP,0.15
17,RRIRKRPPRLPRPRPRPRHSPRP,0.152
18,RRIRGRPPRLPRPRPRPPPRPRP,1.69
19,RRIRERPPRLPRPRPRPPYYPRP,-0.433
20,RRIRCRPPRLPRPRPRPHNDPRP,-0.889
21,RRIRARPPRLPRPRPRPRKEPRP,-0.0116
22,RRIRPRPPRLPRPRPRPDFPPRP,-0.0174

row,Sequence,shrunken log2 fold change
1,RRIRRRPPRLPRPRPRPLPLPRP,0.0912
2,RRIRYRPPRLPRPRPRPRRTPRP,-0.202
3,RRIRNRPPRLPRPRPRPDWLPRP,0.156
4,RRIRTRPPRLPRPRPRPFYRPRP,-0.189
5,RRIRYRPPRLPRPRPRPDQPPRP,0.0375
6,RRIRCRPPRLPRPRPRPNKKPRP,0.0294
7,RRIRLRPPRLPRPRPRPFFIPRP,-0.396
8,RRIRYRPPRLPRPRPRPRRHPRP,-0.103
9,RRIRIRPPRLPRPRPRPNEHPRP,-0.459
10,RRIRRRPPRLPRPRPRPRWKPRP,-0.0516
11,RRIRERPPRLPRPRPRPQQMPRP,-0.237
12,RRIRPRPPRLPRPRPRPVSSPRP,-0.0455
13,RRIRIRPPRLPRPRPRPACGPRP,0.271
14,RRIRRRPPRLPRPRPRPFAPPRP,0.368
15,RRIRSRPPRLPRPRPRPFMLPRP,-0.411
16,RRIRFRPPRLPRPRPRPEWGPRP,0.186
17,RRIRQRPPRLPRPRPRPHALPRP,-0.6
18,RRIRRRPPRLPRPRPRPYEDPRP,-0.08
19,RRIRFRPPRLPRPRPRPFYWPRP,-0.217
20,RRIRVRPPRLPRPRPRPTVPPRP,-0.138
21,RRIRIRPPRLPRPRPRPSYCPRP,-0.408
